Earlier results in PMC4340714.

Molecular target: Mst2 kinase domain (Homo sapiens) (UniProt Q13188)
Chain of UniProt Q13188 (Q13188 27-278): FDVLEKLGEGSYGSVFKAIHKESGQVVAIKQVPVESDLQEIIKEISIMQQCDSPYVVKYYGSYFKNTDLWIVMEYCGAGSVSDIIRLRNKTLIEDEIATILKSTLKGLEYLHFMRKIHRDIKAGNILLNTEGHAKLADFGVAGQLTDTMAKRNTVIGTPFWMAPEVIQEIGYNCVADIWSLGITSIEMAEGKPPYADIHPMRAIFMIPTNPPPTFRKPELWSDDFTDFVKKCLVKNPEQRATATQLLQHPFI

- Kd: 36 µM
Substance: Mst1 kinase domain (from UniProt Q13043)
